Laboratory results taken from publication PMC4046112, “eIF2B is a decameric guanine nucleotide exchange factor with a γ2ε2 tetrameric core” (Nature Communications, 2014).

B2: eIF2Bγ, FLAG-tagged (γ-subunit of yeast eIF2B) (natural protein, S. cerevisiae, UniProt P09032 1-578, looked up)
chain: MSIQAFVFCGKGSNLAPFTQPDFPFQTQNKDSTAATSGDKLNELVNSALDSTVINEFMQHSTRLPKALLPIGNRPMIEYVLDWCDQADFKEISVVAPVDEIELIESGLTSFLSLRKQQFELIYKALSNSNHSHHLQDPKKINFIPSKANSTGESLQKELLPRINGDFVILPCDFVTDIPPQVLVDQFRNRDDNNLAMTIYYKNSLDSSIDKKQQQKQKQQQFFTVYSENEDSERQPILLDVYSQRDVTKTKYLQIRSHLLWNYPNLTVSTKLLNSFIYFCSFELCQLLKLGPQSMSRQASFKDPFTGNQQQQNPPTTDDDEDRNHDDDDDYKPSATSIQPTYFKKKNDLILDPINCNKSLSKVFRDLSRRSWQHSKPREPIGIFILPNETLFIRANNLNAYMDANRFVLKIKSQTMFTKNIQIQSAAIGADAIVDPKCQISAHSNVKMSVLGTQANIGSRCRVAGSLLFPGVHLGDEVILENCIIGPMAKIGSKCKLSNCYIEGHYVVEPKNNFKGETLANVYLDEDEEDELIYDDSVIAGESEIAEETDSDDRSDEDSDDSEYTDEYEYEDDGLFER
notes: eIF2B gamma subunit (GCD1), S. cerevisiae; Bait of all eIF2B complex purifications; also called GCD1-FLAG2-His6; source: S. cerevisiae strains overexpressing eIF2B subunits, purified (anti-FLAG resin, FLAG peptide elution); not shown: FLAG2, C-terminal, kept

Experiments:
[1] = target: T1, eIF2Bγ in the eIF2Bγε core complex (γ2ε2) (Saccharomyces cerevisiae, UniProt P09032); experiment: photo-cross-linking and native nano-electrospray MS; assay type: binding; details: 10 mM 6-Thio-GTP; UV 365 nm 5 min on ice; 500 mM ammonium acetate; covalent (photo-cross-link); adduct on γ-subunit
T1 construct: gene GCD1; γε core co-overexpressed in yeast, γ-subunit C-terminally FLAG-tagged (GCD1-FLAG2-His6), anti-FLAG purified; GTP adduct seen on dissociated γ; with Translation initiation factor eIF2B subunit epsilon
T1 sequence (P09032 1-578): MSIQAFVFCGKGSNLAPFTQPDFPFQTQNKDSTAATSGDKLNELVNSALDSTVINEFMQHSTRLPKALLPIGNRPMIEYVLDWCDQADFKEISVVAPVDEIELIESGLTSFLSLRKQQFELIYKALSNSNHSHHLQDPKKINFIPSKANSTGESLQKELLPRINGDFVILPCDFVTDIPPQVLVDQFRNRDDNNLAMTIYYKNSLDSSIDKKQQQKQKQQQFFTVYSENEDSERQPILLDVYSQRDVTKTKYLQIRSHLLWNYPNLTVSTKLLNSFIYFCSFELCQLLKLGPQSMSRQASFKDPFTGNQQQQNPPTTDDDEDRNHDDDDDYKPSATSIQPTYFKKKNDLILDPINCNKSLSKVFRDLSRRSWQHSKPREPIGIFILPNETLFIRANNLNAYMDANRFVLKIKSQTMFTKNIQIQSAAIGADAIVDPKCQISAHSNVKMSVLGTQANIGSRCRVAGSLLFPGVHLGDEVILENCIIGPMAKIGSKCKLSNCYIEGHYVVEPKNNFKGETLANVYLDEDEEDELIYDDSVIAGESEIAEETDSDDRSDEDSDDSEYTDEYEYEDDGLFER
T1 sequence (P32501 1-712 partner): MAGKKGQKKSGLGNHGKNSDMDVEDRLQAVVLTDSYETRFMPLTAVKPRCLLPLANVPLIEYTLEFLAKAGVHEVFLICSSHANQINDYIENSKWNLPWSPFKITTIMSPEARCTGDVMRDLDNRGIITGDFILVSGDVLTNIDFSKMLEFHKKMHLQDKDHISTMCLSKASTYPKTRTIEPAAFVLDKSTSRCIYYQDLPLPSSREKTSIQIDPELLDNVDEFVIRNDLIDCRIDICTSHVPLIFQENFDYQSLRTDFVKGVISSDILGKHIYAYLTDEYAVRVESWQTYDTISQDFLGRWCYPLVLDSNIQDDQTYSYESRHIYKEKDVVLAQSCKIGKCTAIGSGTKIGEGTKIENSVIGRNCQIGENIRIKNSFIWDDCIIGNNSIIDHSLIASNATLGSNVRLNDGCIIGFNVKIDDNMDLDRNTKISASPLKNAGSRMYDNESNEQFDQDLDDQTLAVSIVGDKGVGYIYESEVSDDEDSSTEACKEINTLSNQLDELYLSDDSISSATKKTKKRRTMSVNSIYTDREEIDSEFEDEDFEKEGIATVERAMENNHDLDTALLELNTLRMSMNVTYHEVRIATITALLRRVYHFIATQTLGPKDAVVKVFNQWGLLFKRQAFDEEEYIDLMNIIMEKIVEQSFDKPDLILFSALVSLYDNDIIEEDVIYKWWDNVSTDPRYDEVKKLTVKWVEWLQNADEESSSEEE

[2] = target: yeast four subunit complex lacking the α-subunit, eIF2Bβδγε (octamer) (S. cerevisiae) (UniProt P32502); experiment: native MS; FLAG-purified four-subunit eIF2Bβδγε in ammonium acetate, without and with 10% acetonitrile; octamer = two copies of each of four subunits
[3] = target: T2, eIF2Bα (α-subunit of yeast eIF2B) (S. cerevisiae, UniProt P14741 1-305); experiment: cross-linking; BS3-d0/d4 (1:1) added to purified complexes (eIF2:eIF2B, four-subunit eIF2B, eIF2Bγε core), 30 min at 26 °C, trypsin digest, nanoLC-MS/MS, MassMatrix search; the text does not tell which cross-link came from which complex; details: both partners purified
T2 construct: eIF2B alpha subunit (GCN3), S. cerevisiae; Subunit of the purified eIF2B complex, written alone for the subunit pairs; also called eIF2B α-subunit; GCN3
T2 sequence (looked up): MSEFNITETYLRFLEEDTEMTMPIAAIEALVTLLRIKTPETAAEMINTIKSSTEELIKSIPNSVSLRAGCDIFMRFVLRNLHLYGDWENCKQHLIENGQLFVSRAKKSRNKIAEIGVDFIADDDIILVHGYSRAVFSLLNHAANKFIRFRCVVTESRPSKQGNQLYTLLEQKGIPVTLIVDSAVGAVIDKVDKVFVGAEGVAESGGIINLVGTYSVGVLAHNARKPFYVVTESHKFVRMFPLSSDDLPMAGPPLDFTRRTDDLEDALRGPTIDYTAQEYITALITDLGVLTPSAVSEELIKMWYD

[4] = target: B2; experiment: as above; details: both partners purified
[5] = target: T3, eIF2Bδ (δ-subunit of yeast eIF2B) (S. cerevisiae, UniProt P12754 1-651); experiment: as above; details: both partners purified
T3 construct: eIF2B delta subunit (GCD2), S. cerevisiae; Subunit of the purified eIF2B complexes, written alone for the subunit pairs; also called eIF2B δ-subunit; δ/Gcd2
T3 sequence (looked up): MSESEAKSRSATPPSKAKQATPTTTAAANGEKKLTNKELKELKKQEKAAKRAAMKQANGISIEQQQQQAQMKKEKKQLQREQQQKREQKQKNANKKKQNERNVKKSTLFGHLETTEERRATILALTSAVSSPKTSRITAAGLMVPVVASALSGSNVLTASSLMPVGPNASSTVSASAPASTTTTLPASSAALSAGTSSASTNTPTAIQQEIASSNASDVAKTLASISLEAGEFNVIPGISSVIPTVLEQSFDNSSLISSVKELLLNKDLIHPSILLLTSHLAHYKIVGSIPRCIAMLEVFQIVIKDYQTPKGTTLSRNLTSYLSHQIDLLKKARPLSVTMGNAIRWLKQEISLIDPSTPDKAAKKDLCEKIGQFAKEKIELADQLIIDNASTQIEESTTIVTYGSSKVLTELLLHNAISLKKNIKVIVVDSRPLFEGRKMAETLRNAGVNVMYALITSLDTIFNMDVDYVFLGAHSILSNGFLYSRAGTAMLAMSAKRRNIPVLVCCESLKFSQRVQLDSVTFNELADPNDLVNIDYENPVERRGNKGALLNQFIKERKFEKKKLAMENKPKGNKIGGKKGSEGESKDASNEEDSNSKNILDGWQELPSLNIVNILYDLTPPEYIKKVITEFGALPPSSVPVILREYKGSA

[6] = target: eIF2α phosphorylated at Ser51 (subunit of phosphorylated eIF2) (S. cerevisiae) (UniProt P20459); experiment: label-free quantitative proteomics (iBAQ) of the purified complex; eIF2-eIF2B complex purified after phosphorylation of eIF2, trypsin digest, nanoLC-MS/MS, iBAQ intensities compared; eIF2B subunits relative to FLAG-tagged γ (set to 1), eIF2 subunits relative to α
[7] = target: T4, eIF2Bε (ε-subunit of yeast eIF2B, untagged) (S. cerevisiae, UniProt P32501 1-712); experiment: native MS; FLAG-purified four-subunit eIF2Bβδγε in ammonium acetate, without and with 10% acetonitrile; octamer = two copies of each of four subunits; details: both partners purified
T4 construct: eIF2B epsilon subunit (GCD6), S. cerevisiae; Subunit of the purified eIF2B complexes, written alone for the subunit pairs; also called eIF2B ε-subunit; ε/GCD6
T4 sequence (looked up): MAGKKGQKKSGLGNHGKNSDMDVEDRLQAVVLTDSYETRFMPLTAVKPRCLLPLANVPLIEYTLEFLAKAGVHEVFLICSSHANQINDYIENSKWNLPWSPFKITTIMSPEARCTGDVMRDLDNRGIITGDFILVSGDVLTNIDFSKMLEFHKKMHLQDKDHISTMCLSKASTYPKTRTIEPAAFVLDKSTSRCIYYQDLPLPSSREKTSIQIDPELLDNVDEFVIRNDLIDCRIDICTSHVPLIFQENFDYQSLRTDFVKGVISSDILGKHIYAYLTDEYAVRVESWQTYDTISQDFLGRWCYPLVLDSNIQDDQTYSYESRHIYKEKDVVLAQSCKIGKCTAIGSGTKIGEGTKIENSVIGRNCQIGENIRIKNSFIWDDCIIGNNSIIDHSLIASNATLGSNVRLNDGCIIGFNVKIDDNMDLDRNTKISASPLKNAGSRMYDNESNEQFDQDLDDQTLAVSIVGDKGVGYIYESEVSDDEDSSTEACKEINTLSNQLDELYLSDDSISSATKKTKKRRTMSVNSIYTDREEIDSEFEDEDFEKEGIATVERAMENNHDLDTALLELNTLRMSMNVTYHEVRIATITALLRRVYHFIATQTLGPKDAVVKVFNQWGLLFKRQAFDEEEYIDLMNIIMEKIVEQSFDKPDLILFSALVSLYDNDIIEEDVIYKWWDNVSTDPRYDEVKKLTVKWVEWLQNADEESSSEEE

[8] = target: T3, eIF2Bδ (δ-subunit of yeast eIF2B); experiment: as above; details: both partners purified
[9] = target: the molecule itself; experiment: as above

Nc1nc(=S)c2ncn([C@@H]3O[C@H](COP(=O)(O)OP(=O)(O)OP(=O)(O)O)[C@@H](O)[C@H]3O)c2[nH]1 [6-Thio-GTP]
photo-cross-linking and native nano-electrospray MS [1]: After incubation with 6-Thio-GTP and ultraviolet irradiation, the intensity of the GTP-bound population

yeast four subunit complex lacking the α-subunit, eIF2Bβδγε (octamer), P32502 1-381; P12754 1-651; P09032 1-578; P32501 1-712
stoichiometry N [2]: 8

B1: eIF2β (β-subunit of yeast eIF2) (natural protein, S. cerevisiae, UniProt P09064 1-285, looked up)
chain: MSSDLAAELGFDPALKKKKKTKKVIPDDFDAAVNGKENGSGDDLFAGLKKKKKKSKSVSADAEAEKEPTDDIAEALGELSLKKKKKKTKDSSVDAFEKELAKAGLDNVDAESKEGTPSANSSIQQEVGLPYSELLSRFFNILRTNNPELAGDRSGPKFRIPPPVCLRDGKKTIFSNIQDIAEKLHRSPEHLIQYLFAELGTSGSVDGQKRLVIKGKFQSKQMENVLRRYILEYVTCKTCKSINTELKREQSNRLFFMVCKSCGSTRSVSSIKTGFQATVGKRRRM
notes: eIF2 beta subunit (SUI3), S. cerevisiae; Subunit of the purified eIF2 complex, written alone for the subunit pairs; also called eIF2 β-subunit; SUI3
binding result [3]: binds | binding result [4]: binds | binding result [5]: binds | stoichiometry N [6]: 1.08

B2
binding result [7]: binds | binding result [8]: binds

B3: eIF2Bγε core complex (complex, S. cerevisiae)
chain 1: MSIQAFVFCGKGSNLAPFTQPDFPFQTQNKDSTAATSGDKLNELVNSALDSTVINEFMQHSTRLPKALLPIGNRPMIEYVLDWCDQADFKEISVVAPVDEIELIESGLTSFLSLRKQQFELIYKALSNSNHSHHLQDPKKINFIPSKANSTGESLQKELLPRINGDFVILPCDFVTDIPPQVLVDQFRNRDDNNLAMTIYYKNSLDSSIDKKQQQKQKQQQFFTVYSENEDSERQPILLDVYSQRDVTKTKYLQIRSHLLWNYPNLTVSTKLLNSFIYFCSFELCQLLKLGPQSMSRQASFKDPFTGNQQQQNPPTTDDDEDRNHDDDDDYKPSATSIQPTYFKKKNDLILDPINCNKSLSKVFRDLSRRSWQHSKPREPIGIFILPNETLFIRANNLNAYMDANRFVLKIKSQTMFTKNIQIQSAAIGADAIVDPKCQISAHSNVKMSVLGTQANIGSRCRVAGSLLFPGVHLGDEVILENCIIGPMAKIGSKCKLSNCYIEGHYVVEPKNNFKGETLANVYLDEDEEDELIYDDSVIAGESEIAEETDSDDRSDEDSDDSEYTDEYEYEDDGLFER
chain 2: MAGKKGQKKSGLGNHGKNSDMDVEDRLQAVVLTDSYETRFMPLTAVKPRCLLPLANVPLIEYTLEFLAKAGVHEVFLICSSHANQINDYIENSKWNLPWSPFKITTIMSPEARCTGDVMRDLDNRGIITGDFILVSGDVLTNIDFSKMLEFHKKMHLQDKDHISTMCLSKASTYPKTRTIEPAAFVLDKSTSRCIYYQDLPLPSSREKTSIQIDPELLDNVDEFVIRNDLIDCRIDICTSHVPLIFQENFDYQSLRTDFVKGVISSDILGKHIYAYLTDEYAVRVESWQTYDTISQDFLGRWCYPLVLDSNIQDDQTYSYESRHIYKEKDVVLAQSCKIGKCTAIGSGTKIGEGTKIENSVIGRNCQIGENIRIKNSFIWDDCIIGNNSIIDHSLIASNATLGSNVRLNDGCIIGFNVKIDDNMDLDRNTKISASPLKNAGSRMYDNESNEQFDQDLDDQTLAVSIVGDKGVGYIYESEVSDDEDSSTEACKEINTLSNQLDELYLSDDSISSATKKTKKRRTMSVNSIYTDREEIDSEFEDEDFEKEGIATVERAMENNHDLDTALLELNTLRMSMNVTYHEVRIATITALLRRVYHFIATQTLGPKDAVVKVFNQWGLLFKRQAFDEEEYIDLMNIIMEKIVEQSFDKPDLILFSALVSLYDNDIIEEDVIYKWWDNVSTDPRYDEVKKLTVKWVEWLQNADEESSSEEE
notes: eIF2B gamma subunit (GCD1), S. cerevisiae; eIF2B epsilon subunit (GCD6), S. cerevisiae; Seen as γε dimer (predominant) and γ2ε2 tetramer; the self row stands for two γε dimers joined in the tetramer; also called γε dimer; γ2ε2 tetramer; source: S. cerevisiae, purified by the FLAG-tagged γ-subunit (anti-FLAG resin); also formed from eIF2Bβδγε on adding 10% acetonitrile; not shown: FLAG2, …
stoichiometry N [9]: 4
